Measurements from article PMC9915769, “A novel binding site on the cryptic intervening domain is a motif-dependent regulator of O-GlcNAc transferase” (Research Square, 2023).
Blank lines part the entries; values can stand above or below the molecule they belong to. Non-standard residues stand in square brackets, D forms with d. No end group written: not given here. pY = N[C@@H](Cc1ccc(OP(=O)(O)O)cc1)C(=O)O

What was measured:
OGT F723E = experiment: Saturation FP binding assay, OGT mutant F723E; design: species or system Human; conditions: 5-FAM-SMG9 0.4 μM stock mixed 1:1, TBS pH 8.0, n=3
Source text: (§1) To confirm the SMG9 peptide binding mode in our crystal structure, we mutated each of the two primary binding features: the hydrophobic pocket (F723, I734, and I787) and the bidentate donor N791, and measured their changes in binding affinity for SMG9 peptide. Each of the hydrophobic OGT residues were mutated to a glutamate or arginine, while the asparagine bidentate interaction was disrupted by mutation to alanine. Each mutated OGT construct was recombinantly expressed in E coli and purified at high concentration for FP saturation binding assays with fluorescent SMG9 peptide. Insertion of charged residues into the hydrophobic pocket (F723E, I734R, I787E, and I787R) as well as disruption of the bidentate backbone interaction (N791 A) each shifted EC50 values by >10-fold (Fig. 2d, Extended data Fig. 3a), showing that these mutations substantially disrupt SMG9 peptide binding.
(§2) All FP measurements were carried out in black small volume 384-well plates (Greiner Bio-One). For saturation binding assays, 2-fold serial dilutions of recombinantly purified OGT were prepared in TBS (150 mM NaCl, 20 mM Tris-HCl, pH 8.0). 5-FAM-SMG9 fluorescent peptide at 0.4 μM in TBS was added in equal volume to the OGT dilution series. […] After 20 min incubation in the dark at room temperature, FP was read on a BMG PheraStar multimode plate reader equipt with 488, 520, 520 FP filter cube (BMG Labtech).

OGT I787E = experiment: Saturation FP binding assay, OGT mutant I787E; design: species or system Human; conditions: 5-FAM-SMG9 0.4 μM stock mixed 1:1, TBS pH 8.0, n=3
Source text: as §1, §2

OGT I734R = experiment: Saturation FP binding assay, OGT mutant I734R; design: species or system Human; conditions: 5-FAM-SMG9 0.4 μM stock mixed 1:1, TBS pH 8.0, n=3
Source text: as §1, §2

OGT I787R = experiment: Saturation FP binding assay, OGT mutant I787R; design: species or system Human; conditions: 5-FAM-SMG9 0.4 μM stock mixed 1:1, TBS pH 8.0, n=3
Source text: as §1, §2

OGT N791A = experiment: Saturation FP binding assay, OGT mutant N791A; design: species or system Human; conditions: 5-FAM-SMG9 0.4 μM stock mixed 1:1, TBS pH 8.0, n=3
Source text: as §1, §2

[1] = target: fluorescently labeled 5-FAM-SMG9 peptide (human) (UniProt Q9H0W8); experiment: fluorescence polarisation; saturation: 2-fold serial dilutions of OGT (WT or mutant) plus equal volume of 0.4 uM 5-FAM-SMG9; TBS (150 mM NaCl, 20 mM Tris-HCl, pH 8.0); 20 min, room temperature
OGT = target: T1, OGT (Homo sapiens, UniProt O15294); experiment: Competitive fluorescence polarization (FP) binding assay with 5-FAM-SMG9 peptide; conditions: FP competition with 5-FAM-SMG9 for OGT binding, TBS pH 8.0, n=3
T1 construct: two OGT constructs, full-length OGT (OGT) and the protein crystallization construct OGT4.5; His6 (N); made in house; host or cells: E. coli BL21(DE3)
T1 sequence (O15294 1-1046): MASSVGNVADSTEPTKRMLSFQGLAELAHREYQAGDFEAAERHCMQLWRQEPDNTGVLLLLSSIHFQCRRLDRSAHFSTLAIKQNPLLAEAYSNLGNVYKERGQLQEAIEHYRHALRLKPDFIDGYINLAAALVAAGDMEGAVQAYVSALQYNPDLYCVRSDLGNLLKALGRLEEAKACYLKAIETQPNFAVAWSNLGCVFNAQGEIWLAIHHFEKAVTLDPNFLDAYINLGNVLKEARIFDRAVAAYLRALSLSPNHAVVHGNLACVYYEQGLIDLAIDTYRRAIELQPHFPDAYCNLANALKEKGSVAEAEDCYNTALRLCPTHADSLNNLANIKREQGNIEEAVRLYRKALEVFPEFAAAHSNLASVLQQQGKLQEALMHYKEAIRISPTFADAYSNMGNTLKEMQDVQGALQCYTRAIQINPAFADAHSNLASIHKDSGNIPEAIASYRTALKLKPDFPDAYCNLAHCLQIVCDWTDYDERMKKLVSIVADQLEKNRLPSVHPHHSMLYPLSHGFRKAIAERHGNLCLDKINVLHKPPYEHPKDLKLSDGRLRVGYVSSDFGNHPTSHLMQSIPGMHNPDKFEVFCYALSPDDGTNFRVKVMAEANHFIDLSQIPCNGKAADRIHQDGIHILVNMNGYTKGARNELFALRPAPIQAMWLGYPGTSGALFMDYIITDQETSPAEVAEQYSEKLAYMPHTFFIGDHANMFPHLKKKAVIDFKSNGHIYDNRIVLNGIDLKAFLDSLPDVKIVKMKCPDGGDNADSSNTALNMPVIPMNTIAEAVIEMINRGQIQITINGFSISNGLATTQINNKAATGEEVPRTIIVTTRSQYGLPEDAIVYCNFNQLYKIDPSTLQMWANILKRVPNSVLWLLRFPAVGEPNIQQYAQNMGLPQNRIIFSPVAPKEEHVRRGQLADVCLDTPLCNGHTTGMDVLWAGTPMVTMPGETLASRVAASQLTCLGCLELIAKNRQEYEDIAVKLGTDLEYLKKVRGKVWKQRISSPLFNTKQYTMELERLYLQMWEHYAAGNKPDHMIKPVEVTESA
Procedure: All FP measurements were carried out in black small volume 384-well plates (Greiner Bio-One). For saturation binding assays, 2-fold serial dilutions of recombinantly purified OGT were prepared in TBS (150 mM NaCl, 20 mM Tris-HCl, pH 8.0). 5-FAM-SMG9 fluorescent peptide at 0.4 μM in TBS was added in equal volume to the OGT dilution series. For competition binding assays, 2-fold serial dilutions of unlabeled peptide were prepared in TBS. An equal volume of 20 μM OGT with 0.4 μM 5-FAM-SMG9 in TBS was added to the dilution series. After 20 min incubation in the dark at room temperature, FP was read on a BMG PheraStar multimode plate reader equipt with 488, 520, 520 FP filter cube (BMG Labtech).

[2] = target: T2, full-length O-GlcNAc transferase (OGT), recombinant (human, UniProt O15294-3 1-1036); experiment: MST
T2 chain: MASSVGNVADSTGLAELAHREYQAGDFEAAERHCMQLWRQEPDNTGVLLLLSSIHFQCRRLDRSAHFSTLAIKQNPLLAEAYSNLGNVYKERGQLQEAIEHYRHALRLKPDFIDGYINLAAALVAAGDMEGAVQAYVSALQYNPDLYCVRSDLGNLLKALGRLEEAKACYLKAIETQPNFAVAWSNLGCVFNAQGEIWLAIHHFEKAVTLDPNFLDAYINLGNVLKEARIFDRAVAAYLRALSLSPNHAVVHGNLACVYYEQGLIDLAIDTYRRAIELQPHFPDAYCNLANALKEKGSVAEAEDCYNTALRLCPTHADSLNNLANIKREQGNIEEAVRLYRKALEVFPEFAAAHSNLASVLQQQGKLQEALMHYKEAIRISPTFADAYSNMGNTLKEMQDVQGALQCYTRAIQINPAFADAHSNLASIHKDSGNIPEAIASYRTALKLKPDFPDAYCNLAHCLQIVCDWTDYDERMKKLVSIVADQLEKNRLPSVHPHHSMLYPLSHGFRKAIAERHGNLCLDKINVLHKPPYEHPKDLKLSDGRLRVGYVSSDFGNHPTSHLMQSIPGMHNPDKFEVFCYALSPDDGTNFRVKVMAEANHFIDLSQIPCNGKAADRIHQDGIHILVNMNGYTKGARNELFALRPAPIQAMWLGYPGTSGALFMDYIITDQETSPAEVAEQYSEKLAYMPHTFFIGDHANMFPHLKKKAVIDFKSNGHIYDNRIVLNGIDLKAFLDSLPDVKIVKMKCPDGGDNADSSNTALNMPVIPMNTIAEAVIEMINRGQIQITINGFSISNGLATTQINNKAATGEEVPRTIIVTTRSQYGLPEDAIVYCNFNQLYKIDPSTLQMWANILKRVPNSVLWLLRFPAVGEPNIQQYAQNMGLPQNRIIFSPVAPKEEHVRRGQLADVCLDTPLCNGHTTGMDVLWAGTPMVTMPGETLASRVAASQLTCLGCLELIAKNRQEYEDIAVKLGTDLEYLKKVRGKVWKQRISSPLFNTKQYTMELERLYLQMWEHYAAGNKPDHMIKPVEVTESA

Molecule: OGT F723E, recombinant (enzyme)
- fold shift in EC50 against wild-type OGT [1]: > 10 fold

Molecule: OGT I787E, recombinant (from UniProt O15294-3 1-1036) (enzyme)
- fold shift in EC50 against wild-type OGT [1]: > 10 fold

Molecule: OGT I787R, recombinant (from UniProt O15294-3 1-1036) (enzyme)
- fold shift in EC50 against wild-type OGT [1]: > 10 fold

Molecule: OGT N791A, recombinant (enzyme)
- fold shift in EC50 against wild-type OGT [1]: > 10 fold

Molecule: SMG9 Y147F: SMG9 peptide with Y147F mutation (QRPTQPVFQIQNRGMG)
- fold shift in EC50 relative to WT SMG9 peptide (OGT): > 10 fold

Further lines, results first:

- fold shift in EC50 relative to wild-type OGT (OGT F723E): > 10 fold
- fold shift in EC50 relative to wild-type OGT (OGT I787E): > 10 fold
- fold shift in EC50 relative to wild-type OGT (OGT I734R): > 10 fold
- fold shift in EC50 relative to wild-type OGT (OGT I787R): > 10 fold
- fold shift in EC50 relative to wild-type OGT (OGT N791A): > 10 fold
Molecule: 5-FAM-SMG9 peptide: fluorescently labeled 5-FAM SMG9 peptide, probe for MST and FP assays (QRPTQPVYQIQNRGMG; not fully specified (N-terminus); also: 5-FAM label, position not given here)

- fold shift in EC50 against wild-type OGT [1]: > 10 fold
Molecule: OGT I734R, recombinant (enzyme)

- peptide binding to OGT (FP competition) (OGT): significantly disrupted peptide binding
Molecule: SMG9 pY147: phosphorylated SMG9 peptide (pY147) (QRPTQPV[pY]QIQNRGMG)

- Kd [2]: 13.1 µM
B1: fluorescently labeled 5-FAM-SMG9 peptide (peptide, UniProt Q9H0W8 140-155, looked up)
peptide: QRPTQPVYQIQNRGMG
modifications: not fully specified (N-terminus); also: 5-FAM label, position not given here
notes: SMG9, human, 16-mer peptide with the PxYx[I/L] motif, residues 140-155 as stated for the SMG9 peptide; The limits 140-155 are printed for the SMG9 peptide of the crystal; the labelled peptide bears the same name; also called fluorescent SMG9 peptide; source: synthetic peptide (solid phase peptide synthesis, Ontores)
